In the Immune Epitope Database (IEDB):
Values belong to the sequence of their own block, whether it stands above or below them.

How the values were obtained:
[1] = target: HLA-A*03:01; test: IEDB peptide-MHC binding, purified MHC/competitive/fluorescence; filed as Kd, often an IC50 or EC50 that approximates it; ≥ and ≤ were set here for values at or beyond the usual limits of such assays
[2] = target: HLA-A*68:02; test: IEDB peptide-MHC binding, purified MHC/competitive/radioactivity; filed as Kd, often an IC50 or EC50 that approximates it; ≥ and ≤ were set here for values at or beyond the usual limits of such assays
[3] = target: HLA-A*30:01; test: as above; conditions: source organism: Vaccinia virus WR
[4] = target: HLA-A*32:01; test: as above; conditions: source organism: Vaccinia virus WR
[5] = target: HLA-B*08:01; test: as above; conditions: source organism: Vaccinia virus WR
[6] = target: HLA-B*15:01; test: as above
[7] = target: HLA-B*15:03; test: as above; conditions: source organism: Vaccinia virus WR
[8] = target: HLA-A*24:03; test: IEDB peptide-MHC binding, purified MHC/direct/fluorescence; filed as Kd, often an IC50 or EC50 that approximates it; ≥ and ≤ were set here for values at or beyond the usual limits of such assays; conditions: source organism: Salmonella enterica
[9] = target: HLA-A*11:01; test: IEDB peptide-MHC binding, purified MHC/competitive/fluorescence; ≥ and ≤ were set here for values at or beyond the usual limits of such assays; conditions: source organism: Zaire ebolavirus
[10] = target: HLA-A*24:02; test: as above; conditions: source organism: Zaire ebolavirus
[11] = target: HLA-B*07:02; test: IEDB peptide-MHC binding, purified MHC/competitive/radioactivity; filed as Kd, often an IC50 or EC50 that approximates it; ≥ and ≤ were set here for values at or beyond the usual limits of such assays; conditions: source organism: Dengue virus 2 Jamaica/1409/1983
[12] = target: HLA-A*02:01; test: as above; conditions: source organism: Trypanosoma cruzi
[13] = target: HLA-A*02:02; test: as above
[14] = target: HLA-A*02:03; test: as above
[15] = target: HLA-A*02:06; test: as above
[16] = target: HLA-A*26:01; test: as above; conditions: source organism: Dengue virus 2 Jamaica/1409/1983
[17] = target: HLA-B*35:01; test: as above; conditions: source organism: Dengue virus 4 Philippines/H241/1956
[18] = target: HLA-B*57:01; test: IEDB peptide-MHC binding, purified MHC/direct/fluorescence; filed as Kd, often an IC50 or EC50 that approximates it; ≥ and ≤ were set here for values at or beyond the usual limits of such assays; conditions: source organism: Entamoeba histolytica HM-1:IMSS
[19] = target: HLA-B*58:01; test: as above; conditions: source organism: Entamoeba histolytica HM-1:IMSS
[20] = source organism: Vaccinia virus WR
[21] = source organism: Trypanosoma cruzi
[22] = source organism: Dengue virus 2 Jamaica/1409/1983
[23] = source organism: Lymphocytic choriomeningitis virus (strain Armstrong) (clone 53b)

Sequence: ATYQRTRALVR
Kd ([1]; source organism: Influenza A virus (A/swine/Italy/1509-6/97(H1N1))): 0.0389 µM

Kd ([2]; source organism: Homo sapiens): 0.916 µM
Sequence: ELDSNLYRI

Sequence: RLHSNTILK
Kd [3]: 0.0485 µM
Kd [4]: 6.35 µM
Kd [5]: ≥ 38.6 µM
Kd [6, 20]: 2.22 µM
Kd [7]: 8.54 µM

Sequence: HHQINYHGF
Kd [8]: 0.965 µM

Sequence: EYPPWLTEK
IC50 [9]: ≥ 123 µM
IC50 [10]: 9.58 µM

Sequence: VNIKYNPHI
Kd [6, 20]: 0.141 µM

Sequence: RPGYHTQTAG
Kd [11]: 0.0021 µM

Sequence: FTQQALSSF
Kd [7]: 0.00643 µM

Sequence: LLGLWGFAAQ
Kd [12]: 1.1 µM
Kd [13, 21]: 1.24 µM
Kd [14, 21]: 0.394 µM
Kd [15, 21]: 0.462 µM
Kd [2, 21]: 1.82 µM

Sequence: TTIAVSMANI
Kd [16]: 3.51 µM
Kd [2, 22]: 0.00387 µM

Sequence: RKISSKNSM
Kd [7]: 0.000114 µM

Sequence: SLSHDFTLV
Kd [12]: 0.0126 µM
Kd [13, 21]: 0.000305 µM
Kd [14, 21]: 0.00165 µM
Kd [15, 21]: 0.00774 µM
Kd [2, 21]: 0.6 µM

Sequence: AEMMAPSMF
Kd [7]: 0.0172 µM

Sequence: RVYAHDAQH
Kd ([1]; source organism: Pixuna virus): 0.0305 µM

Sequence: ESHNQTFLI
Kd [2, 22]: 0.00351 µM

Sequence: ALPHIIDEV
Kd [13, 23]: 0.013 µM
Kd [14, 23]: 0.00034 µM
Kd [15, 23]: 0.066 µM
Kd [2, 23]: 0.179 µM

Sequence: YKVASAGISY
Kd ([6]; source organism: Dengue virus 4 Philippines/H241/1956): 0.00296 µM
Kd [17]: 0.0704 µM

Sequence: TAYEKLWYI
Kd [18]: 0.65 µM
Kd [19]: 0.13 µM

Sequence: LLYTANFTF
Kd [4]: 0.00672 µM
Kd [6, 20]: 0.00243 µM
